± gives the uncertainty stated by the source.
Test: protein stability index of a GFP-peptide fusion (yeast GPS) (PSI 1-4); higher = more stable; sorted into four equal gates, so the index is relative within each strain
Procedure, shortened: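 Tiled yeast protein peptides of 17 residues were each joined downstream of GFP, on plasmids that also express Cherry. The pooled library was maintained in yeast, and mid-log cultures in leucine-free medium were sorted into four equal gates on the GFP/Cherry ratio. Plasmids from every gate were amplified by PCR and sequenced on Illumina, with barcodes linking reads to strains. The protein stability index of a peptide is its gate-number-weighted read frequency summed over the gates.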

YHNKHMMCDFGTGNNNK [DIB1]
protein stability index (doa10∆): 2.7 ± 0.053 | protein stability index (pdr5∆): 2.86 ± 0.055 | protein stability index (san1∆): 2.73 ± 0.049 | protein stability index (ubr1∆): 2.98 ± 0.041

YHSGRLLIQGPKASSAK [ITC1]
protein stability index (doa10∆): 3.15 ± 0.11 | protein stability index (pdr5∆): 3.29 ± 0.078 | protein stability index (san1∆): 3.2 ± 0.059 | protein stability index (ubr1∆): 3.17 ± 0.073

YILANHYLSRVLSDQVG [YJL039C/NUP192]
protein stability index (doa10∆): 2.87 ± 0.064 | protein stability index (pdr5∆): 2.98 ± 0.078 | protein stability index (san1∆): 2.72 ± 0.07 | protein stability index (ubr1∆): 2.54 ± 0.049

YILRYLHANGASFFFMV [COB]
protein stability index (doa10∆): 1.57 ± 0.041 | protein stability index (pdr5∆): 1.27 ± 0.033 | protein stability index (san1∆): 1.39 ± 0.081 | protein stability index (ubr1∆): 1.36 ± 0.038

YITARIMAKRPFDKKSN [FAS1]
protein stability index (doa10∆): 2.74 ± 0.094 | protein stability index (pdr5∆): 2.79 ± 0.078 | protein stability index (san1∆): 1.96 ± 0.12 | protein stability index (ubr1∆): 2.86 ± 0.081

YKEQIIQGFYWAVKEGP [SNU114]
protein stability index (doa10∆): 2.75 ± 0.088 | protein stability index (pdr5∆): 2.38 ± 0.064 | protein stability index (san1∆): 2.23 ± 0.09 | protein stability index (ubr1∆): 2.38 ± 0.08

YKMVQEQLSKQRDLYKR [SMC2]
protein stability index (doa10∆): 3.1 ± 0.097 | protein stability index (pdr5∆): 3.03 ± 0.087 | protein stability index (san1∆): 2.45 ± 0.16 | protein stability index (ubr1∆): 3.09 ± 0.063

YKNLDRGFSKDLKSKAD [RRP6]
protein stability index (doa10∆): 3.05 ± 0.1 | protein stability index (pdr5∆): 3.27 ± 0.15 | protein stability index (san1∆): 3.31 ± 0.065 | protein stability index (ubr1∆): 3.53 ± 0.099

YKPLIEERMGQIENLNE [SMC4]
protein stability index (doa10∆): 3.2 ± 0.23 | protein stability index (pdr5∆): 3.34 ± 0.098 | protein stability index (san1∆): 3.46 ± 0.071 | protein stability index (ubr1∆): 3.28 ± 0.068

YKQAMNETSEQLVPIRL [SNF5]
protein stability index (doa10∆): 3.23 ± 0.16 | protein stability index (pdr5∆): 3.12 ± 0.15 | protein stability index (san1∆): 3.08 ± 0.22 | protein stability index (ubr1∆): 3.43 ± 0.12

YKVDNMTRILPQQSRYI [RPN2]
protein stability index (doa10∆): 2.29 ± 0.077 | protein stability index (pdr5∆): 3.03 ± 0.12 | protein stability index (san1∆): 2.5 ± 0.1 | protein stability index (ubr1∆): 2.56 ± 0.099

YKVMHQIRACKDLKHII [PRP8]
protein stability index (doa10∆): 2.27 ± 0.041 | protein stability index (pdr5∆): 2.41 ± 0.046 | protein stability index (san1∆): 2.21 ± 0.052 | protein stability index (ubr1∆): 2.19 ± 0.05

YLAENPDPNFENSIGYN [PRP8]
protein stability index (doa10∆): 3.28 ± 0.065 | protein stability index (pdr5∆): 3.08 ± 0.061 | protein stability index (san1∆): 3.12 ± 0.088 | protein stability index (ubr1∆): 3.19 ± 0.054

YLERIELSFYILYSFKL [YML103C/NUP188]
protein stability index (doa10∆): 1.49 ± 0.057 | protein stability index (pdr5∆): 1.37 ± 0.044 | protein stability index (san1∆): 1.2 ± 0.08 | protein stability index (ubr1∆): 1.59 ± 0.037

YLIVAGVDPTGSHLFSI [PUP1]
protein stability index (doa10∆): 1.84 ± 0.081 | protein stability index (pdr5∆): 2.24 ± 0.085 | protein stability index (san1∆): 1.94 ± 0.14 | protein stability index (ubr1∆): 2.09 ± 0.068

YLKGATGHSQGLVTAVA [FAS1]
protein stability index (ubr1∆): 3.86 ± 0.23

YLLASLKDSKDFDESLK [RPN9]
protein stability index (doa10∆): 2.69 ± 0.083 | protein stability index (pdr5∆): 2.82 ± 0.088 | protein stability index (san1∆): 2.82 ± 0.099 | protein stability index (ubr1∆): 2.52 ± 0.084

YLLENNQVGTDELILPL [YDL116W/NUP84]
protein stability index (doa10∆): 3.18 ± 0.081 | protein stability index (pdr5∆): 3.06 ± 0.11 | protein stability index (san1∆): 3.07 ± 0.069 | protein stability index (ubr1∆): 2.89 ± 0.057

YLMDSKNVRTRIKLATT [RRI1]
protein stability index (doa10∆): 2.09 ± 0.08 | protein stability index (pdr5∆): 2.07 ± 0.073 | protein stability index (san1∆): 1.61 ± 0.099 | protein stability index (ubr1∆): 1.99 ± 0.061

YLNDLMITKRILEVGAL [RPN12]
protein stability index (doa10∆): 1.29 ± 0.16

YMDSMNEKVAVMRNTYN [GAL11]
protein stability index (doa10∆): 2.72 ± 0.13 | protein stability index (pdr5∆): 3.24 ± 0.062 | protein stability index (san1∆): 2.35 ± 0.069 | protein stability index (ubr1∆): 2.34 ± 0.098

YNGRGARERKTATYNDN [SNF2]
protein stability index (doa10∆): 3 ± 0.069 | protein stability index (pdr5∆): 2.54 ± 0.074 | protein stability index (san1∆): 2.69 ± 0.074 | protein stability index (ubr1∆): 2.69 ± 0.071

YNVCDTSKSLVKRYRLA [SIN4]
protein stability index (doa10∆): 2.39 ± 0.055 | protein stability index (pdr5∆): 2.81 ± 0.058 | protein stability index (san1∆): 2.58 ± 0.062 | protein stability index (ubr1∆): 3.16 ± 0.042

YPFDKLESWWLVLGEVS [BRR2]
protein stability index (doa10∆): 3.18 ± 0.18 | protein stability index (pdr5∆): 3.23 ± 0.15 | protein stability index (san1∆): 3.46 ± 0.11 | protein stability index (ubr1∆): 3.41 ± 0.24

YPFLLSFLGEAKSMAFL [YML103C/NUP188]
protein stability index (doa10∆): 2.18 ± 0.084 | protein stability index (pdr5∆): 2.35 ± 0.067 | protein stability index (san1∆): 2.29 ± 0.11 | protein stability index (ubr1∆): 2.38 ± 0.048

YPFVTNDDIEWMLSICV [YJR042W/NUP85]
protein stability index (doa10∆): 2.29 ± 0.083 | protein stability index (pdr5∆): 2.56 ± 0.061 | protein stability index (san1∆): 2.67 ± 0.059 | protein stability index (ubr1∆): 2.68 ± 0.058

YQKNKPYPKSRYNRAVP [RPL10]
protein stability index (doa10∆): 2.91 ± 0.045 | protein stability index (pdr5∆): 3.06 ± 0.045 | protein stability index (san1∆): 3.06 ± 0.04 | protein stability index (ubr1∆): 2.85 ± 0.038

YRLMIKRLNFSFVGDYM [GRR1]
protein stability index (doa10∆): 2 ± 0.065 | protein stability index (pdr5∆): 1.41 ± 0.052 | protein stability index (san1∆): 1.53 ± 0.095 | protein stability index (ubr1∆): 1.51 ± 0.054

YSAAKKIPDTYTANTSA [YAR002W/NUP60]
protein stability index (doa10∆): 2.43 ± 0.11 | protein stability index (pdr5∆): 2.19 ± 0.082 | protein stability index (san1∆): 2.2 ± 0.077 | protein stability index (ubr1∆): 2.55 ± 0.038

YSDIGGLESQIQEIKES [RPT2]
protein stability index (doa10∆): 1.8 ± 0.095 | protein stability index (pdr5∆): 1.97 ± 0.08 | protein stability index (san1∆): 1.88 ± 0.096 | protein stability index (ubr1∆): 2.52 ± 0.091

YSLHQIRKDPNNLSNQL [CSE2]
protein stability index (doa10∆): 2.54 ± 0.076 | protein stability index (pdr5∆): 2.66 ± 0.071 | protein stability index (san1∆): 2.65 ± 0.054 | protein stability index (ubr1∆): 2.77 ± 0.04

YSRILKSMGRKCFDDIE [YCG1]
protein stability index (doa10∆): 3.16 ± 0.17 | protein stability index (pdr5∆): 2.35 ± 0.12 | protein stability index (san1∆): 2.92 ± 0.21 | protein stability index (ubr1∆): 2.16 ± 0.13

YSSKPYKVDNMTRILPQ [RPN2]
protein stability index (doa10∆): 2.62 ± 0.073 | protein stability index (pdr5∆): 2.88 ± 0.072 | protein stability index (san1∆): 2.62 ± 0.082 | protein stability index (ubr1∆): 2.31 ± 0.067

YTNSVELRSLSKKDFKI [YMR129W/POM152]
protein stability index (doa10∆): 2.41 ± 0.057 | protein stability index (pdr5∆): 2.64 ± 0.058 | protein stability index (san1∆): 2.32 ± 0.078 | protein stability index (ubr1∆): 2.92 ± 0.069

YTRYLDRIYMLFHFEED [PRP8]
protein stability index (doa10∆): 1.68 ± 0.059 | protein stability index (pdr5∆): 1.4 ± 0.051 | protein stability index (san1∆): 1.5 ± 0.12 | protein stability index (ubr1∆): 1.61 ± 0.043

YVIKALQSLTSKGYVKT [RPS10A]
protein stability index (doa10∆): 2.88 ± 0.12 | protein stability index (pdr5∆): 1.74 ± 0.072 | protein stability index (san1∆): 1.39 ± 0.17 | protein stability index (ubr1∆): 2.6 ± 0.089

YVKAVSDKAQLNVVMKN [SMC4]
protein stability index (doa10∆): 2.1 ± 0.074 | protein stability index (pdr5∆): 2.07 ± 0.063 | protein stability index (san1∆): 1.6 ± 0.11 | protein stability index (ubr1∆): 2.19 ± 0.053

YVLYAKIVVLSRTGPVF [RRP43]
protein stability index (doa10∆): 1.29 ± 0.097 | protein stability index (pdr5∆): 1.15 ± 0.077 | protein stability index (san1∆): 1.11 ± 0.16 | protein stability index (ubr1∆): 1.19 ± 0.06

YVSALKRINKFLDSVHK [POP7]
protein stability index (doa10∆): 1.91 ± 0.049 | protein stability index (pdr5∆): 1.56 ± 0.037 | protein stability index (san1∆): 2 ± 0.068 | protein stability index (ubr1∆): 1.8 ± 0.034

YVSQIRKHKRVSPNAAP [YAR002W/NUP60]
protein stability index (doa10∆): 1.95 ± 0.084 | protein stability index (pdr5∆): 1.64 ± 0.053 | protein stability index (san1∆): 2.53 ± 0.085 | protein stability index (ubr1∆): 2.29 ± 0.081

YVTKPMVNESDGVTHAL [RPB2]
protein stability index (doa10∆): 3.2 ± 0.088 | protein stability index (pdr5∆): 3.28 ± 0.087 | protein stability index (san1∆): 2.94 ± 0.081 | protein stability index (ubr1∆): 3.36 ± 0.082

YWTQYLGLFIHKISFSG [YJL039C/NUP192]
protein stability index (doa10∆): 1.99 ± 0.076 | protein stability index (pdr5∆): 1.8 ± 0.058 | protein stability index (san1∆): 1.59 ± 0.1 | protein stability index (ubr1∆): 1.89 ± 0.05

YYGCLENDHERGFFHLN [CSN12]
protein stability index (doa10∆): 3.14 ± 0.063 | protein stability index (pdr5∆): 3.24 ± 0.068 | protein stability index (san1∆): 3.21 ± 0.047 | protein stability index (ubr1∆): 3.26 ± 0.044

YYKNFHNSVKRYQIMLP [SNM1]
protein stability index (doa10∆): 1.12 ± 0.042 | protein stability index (pdr5∆): 1.36 ± 0.059 | protein stability index (san1∆): 1.33 ± 0.11 | protein stability index (ubr1∆): 1.47 ± 0.05

YYQRLRHMVDDKIHARA [RPB2]
protein stability index (pdr5∆): 2.84 ± 0.28 | protein stability index (san1∆): 3.12 ± 0.12 | protein stability index (ubr1∆): 2.77 ± 0.15

YYVPYSKLMPVLKSSVY [RPC82]
protein stability index (doa10∆): 1.53 ± 0.064 | protein stability index (pdr5∆): 1.85 ± 0.079 | protein stability index (san1∆): 1.57 ± 0.098 | protein stability index (ubr1∆): 1.74 ± 0.079

Reference: the supplement of paper PMC9732359
